This note sets out measurements from PMC2653023, “Improving the functional expression of a Bacillus licheniformis laccase by random and site-directed mutagenesis” (BMC Biotechnology, 2009).

Substitutions are numbered along the chain they refer to. Names and notes keep the numbering of the source.

B1: CotA (Bacillus licheniformis DSM 13 = ATCC 14580) (protein)
chain: MKLEKFVDRLPIPQVLQPQSKSKEMTYYEVTMKEFQQQLHRDLPPTRLFGYNGVYPGPTFEVQKHEKVAVKWLNKLPDRHFLPVDHTLHDDGHHEHEVKTVVHLHGGCTPADSDGYPEAWYTKDFHAKGPFFEREVYEYPNEQDATALWYHDHAMAITRLNVYAGLVGLYFIRDREERSLNLPKGEYEIPLLIQDKSFHEDGSLFYPRQPDNPSPDLPDPSIVPAFCGDTILVNGKVWPFAELEPRKYRFRILNASNTRIFELYFDHDITCHQIGTDGGLLQHPVKVNELVIAPAERCDIIVDFSRAEGKTVTLKKRIGCGGQDADPDTDADIMQFRISKPLKQKDTSSLPRILRKRPFYRRHKINALRNLSLGAAVDQYGRPVLLLNNTKWHEPVTETPALGSTEIWSIINAGRAIHPIHLHLVQFMILDHRPFDIERYQENGELVFTGPAVPPAPNEKGLKDTVKVPPGSVTRIIATFAPYSGRYVWHCHILEHEDYDMMRPLEVTDVRHQ
notes: untagged full-length CotA in pET22b+ (NdeI/EcoRI, own stop codon), recombinant from E. coli BL21(DE3), heat step and Q-Sepharose, ~65 kDa; primer-encoded N-terminus MKLEKFVDR, C-terminus EVTDVRHQ
B2: CotA (Bacillus licheniformis DSM 13 = ATCC 14580; D500G/K316N) (protein)
chain: B1 chain with K316N, D500G
notes: as for B1
B3: CotA (Bacillus licheniformis DSM 13 = ATCC 14580; K316N) (protein)
chain: B1 chain with K316N
notes: as for B1
B4: CotA (Bacillus licheniformis DSM 13 = ATCC 14580; D500G) (protein)
chain: B1 chain with D500G
notes: as for B1

Substrate in this series: CCn1c(=NN=c2sc3cc(S(=O)(=O)O)ccc3n2CC)sc2cc(S(=O)(=O)O)ccc21
The experiment in a line: purified protein. Format: biochemical, Bacillus licheniformis. The conditions noted are these: 0.1 M citrate/phosphate buffer, pH 4.0, room temperature, 5-500 μM ABTS, co-substrate O2, free enzyme.
Consider B1, for which the Km (as a rule, the substrate concentration at which the rate is half of its maximum) came out at 6.5 ± 0.2 µM.
B2: the Km is 8.4 ± 0.2 µM.
B3: the Km amounted to 10.0 ± 0.3 µM.
With B4, the Km was determined as 9.5 ± 0.2 µM.
